Measurements from patent publication US7981997B2, “Growth factor which acts through ErbB-4 RTK” (Yeda Research And Development Co., priority 2000, dated 2011).

How the values were obtained:
Type in all cases: binding
[1] = molecular target: T1, IgB-1 (soluble ErbB-1) (Homo sapiens, UniProt P00533); experiment: Covalent crosslinking of radiolabeled ligands to soluble ErbB-IgG fusion, cell-free; details: 125I-labeled ligand, BS3 crosslinking
T1 construct: Recombinant soluble extracellular domains of the four ErbB proteins (denoted IgB-1 through 4); made in house; host or cells: HEK-293 human embryonic kidney cells (conditioned medium)

[2] = molecular target: T2, IgB-3 (soluble ErbB-3) (Homo sapiens, UniProt P21860); experiment: as above; details: 125I-labeled ligand, BS3 crosslinking
T2 construct: Recombinant soluble extracellular domains of the four ErbB proteins (denoted IgB-1 through 4); made in house; host or cells: HEK-293 human embryonic kidney cells (conditioned medium)
T2 sequence (P21860 20-643 limits assumed): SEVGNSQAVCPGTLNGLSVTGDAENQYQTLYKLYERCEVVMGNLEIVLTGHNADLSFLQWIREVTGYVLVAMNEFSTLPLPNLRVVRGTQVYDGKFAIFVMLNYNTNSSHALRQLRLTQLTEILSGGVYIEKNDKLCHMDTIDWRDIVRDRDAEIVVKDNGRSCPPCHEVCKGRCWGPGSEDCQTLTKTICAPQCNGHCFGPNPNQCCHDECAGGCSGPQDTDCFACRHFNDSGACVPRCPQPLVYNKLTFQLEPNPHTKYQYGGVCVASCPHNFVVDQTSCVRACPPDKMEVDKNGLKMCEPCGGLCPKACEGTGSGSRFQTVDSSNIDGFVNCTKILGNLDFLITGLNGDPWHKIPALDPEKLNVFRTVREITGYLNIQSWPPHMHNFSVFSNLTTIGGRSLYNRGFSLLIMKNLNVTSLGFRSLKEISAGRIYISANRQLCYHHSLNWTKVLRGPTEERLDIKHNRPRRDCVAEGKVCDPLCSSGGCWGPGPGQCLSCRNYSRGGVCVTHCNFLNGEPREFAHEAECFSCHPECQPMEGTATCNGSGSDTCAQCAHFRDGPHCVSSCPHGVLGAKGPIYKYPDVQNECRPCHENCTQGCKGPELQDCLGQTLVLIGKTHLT
Description: (§1) The four soluble forms of ErbB proteins, in the form of IgG fusions (denoted IgB-1 through 4), were separately incubated with the indicated radiolabeled growth factors. Where indicated (lower panel), an excess (100-fold) of unlabeled NRG-4 was co-incubated with the labeled ligand. Following 2 hours at 22° C., the covalent crosslinking reagent bis(sulfosuccinimdyl)-suberate (BS^3) was added (1 mM) and 45 minutes later the ligand-receptor complexes were immunoprecipitated with agarose-immobilized protein-A beads. Arrows mark the locations of monomeric (M) and dimeric (D) receptor complexes.
(§2) Growth factors were labeled with Iodogen (Pierce) as described (Karunagaran et al., 1995). Chemical crosslinking to Chinese Hamster Ovary (CHO) cells engineered to express different ErbB combinations have been performed essentially as described (Tzahar et al., 1996). Briefly, radiolabeled ligands (at 100 ng/ml) were incubated for 2 hours with cell monolayers at 4 C. The chemical crosslinking agent BS^3 (1 mM) was then added and the cells were further incubated for 45 minutes at 22 C. Mouse antibodies were first coupled to rabbit anti-mouse IgG and to protein A-Sepharose beads, and then they were incubated with cell extracts for 2 hours at 4 C. Immunoprecipitated complexes were then washed three times with ice-cold SBN buffer (1% NP-40; 150 mM NaCl; 10% Glycerol; 1 mM EGTA, in 50 mM Tris-HCl, pH 7.4; 1 ml per wash) prior to heating (5 minutes at 95 C) in gel sample buffer, resolution by gel electrophoresis, transfer to nitrocellulose and autoradiography. For crosslinking with IgBs, after co-incubation of IgB-containing conditioned media with radiolabeled ligands, complexes were immunoprecipitated directly with Sepharose-protein A beads. For ligand displacement analyses, cell monolayers were washed once with binding buffer, and then incubated for 2 hours at 4 C with radiolabeled […] (5 ng/ml) and various concentrations of unlabeled ligands, as indicated. Non-specific binding was determined in the presence of a 100-fold molar excess of the unlabeled ligani. Cells were then washed, lysed in a solution containing 0.1 M NaOH and 0.1% SDS, and radioactivity determined by use of a gamma counter.
(§3) In the first assay, binding studies in a cell-free system were performed with recombinant soluble forms of all four ErbB proteins. The soluble proteins, denoted IgB-1 through 4, consist of a dimeric fusion between the extracellular domain of the corresponding ErbB and the Fc portion of a human immunoglobulin G (Chen et al., 1996).

[3] = molecular target: T3, IgB-4 (soluble ErbB-4) (Homo sapiens, UniProt Q15303); experiment: as above
T3 construct: Recombinant soluble extracellular domains of the four ErbB proteins (denoted IgB-1 through 4); made in house; host or cells: HEK-293 human embryonic kidney cells (conditioned medium)
T3 sequence (Q15303 26-651 limits assumed): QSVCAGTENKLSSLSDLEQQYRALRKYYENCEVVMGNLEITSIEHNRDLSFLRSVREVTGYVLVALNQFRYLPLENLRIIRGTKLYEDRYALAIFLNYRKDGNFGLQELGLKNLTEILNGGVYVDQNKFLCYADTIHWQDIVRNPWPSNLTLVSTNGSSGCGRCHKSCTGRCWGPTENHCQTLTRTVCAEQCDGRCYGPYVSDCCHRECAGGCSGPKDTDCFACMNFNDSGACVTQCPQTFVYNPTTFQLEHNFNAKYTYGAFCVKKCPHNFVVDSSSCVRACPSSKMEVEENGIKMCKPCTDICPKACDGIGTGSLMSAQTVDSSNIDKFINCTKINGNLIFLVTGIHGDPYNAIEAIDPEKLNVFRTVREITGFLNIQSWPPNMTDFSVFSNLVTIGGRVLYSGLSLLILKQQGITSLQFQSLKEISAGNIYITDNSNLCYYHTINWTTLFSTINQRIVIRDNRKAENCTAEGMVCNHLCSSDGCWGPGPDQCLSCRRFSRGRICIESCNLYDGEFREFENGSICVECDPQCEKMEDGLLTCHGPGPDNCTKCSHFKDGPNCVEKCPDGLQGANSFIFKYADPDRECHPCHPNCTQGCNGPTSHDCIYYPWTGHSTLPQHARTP
Description: as §1, §2, §3

[4] = molecular target: T4, IgB-2 (soluble ErbB-2) (Homo sapiens, UniProt P04626); experiment: as above; details: 125I-labeled ligand, BS3 crosslinking
T4 construct: Recombinant soluble extracellular domains of the four ErbB proteins (denoted IgB-1 through 4); made in house; host or cells: HEK-293 human embryonic kidney cells (conditioned medium)
Description: as §1, §2, §3

[5] = molecular target: T5, ErbB-4 co-expressed with ErbB-3 (Homo sapiens, UniProt Q15303); experiment: Covalent crosslinking to CHO cells co-transfected with ErbB-4 and ErbB-3
T5 construct: expressed in transfected cells; host or cells: CHO (Chinese Hamster Ovary) cells, transient co-transfection
T5 sequence (Q15303 26-1308): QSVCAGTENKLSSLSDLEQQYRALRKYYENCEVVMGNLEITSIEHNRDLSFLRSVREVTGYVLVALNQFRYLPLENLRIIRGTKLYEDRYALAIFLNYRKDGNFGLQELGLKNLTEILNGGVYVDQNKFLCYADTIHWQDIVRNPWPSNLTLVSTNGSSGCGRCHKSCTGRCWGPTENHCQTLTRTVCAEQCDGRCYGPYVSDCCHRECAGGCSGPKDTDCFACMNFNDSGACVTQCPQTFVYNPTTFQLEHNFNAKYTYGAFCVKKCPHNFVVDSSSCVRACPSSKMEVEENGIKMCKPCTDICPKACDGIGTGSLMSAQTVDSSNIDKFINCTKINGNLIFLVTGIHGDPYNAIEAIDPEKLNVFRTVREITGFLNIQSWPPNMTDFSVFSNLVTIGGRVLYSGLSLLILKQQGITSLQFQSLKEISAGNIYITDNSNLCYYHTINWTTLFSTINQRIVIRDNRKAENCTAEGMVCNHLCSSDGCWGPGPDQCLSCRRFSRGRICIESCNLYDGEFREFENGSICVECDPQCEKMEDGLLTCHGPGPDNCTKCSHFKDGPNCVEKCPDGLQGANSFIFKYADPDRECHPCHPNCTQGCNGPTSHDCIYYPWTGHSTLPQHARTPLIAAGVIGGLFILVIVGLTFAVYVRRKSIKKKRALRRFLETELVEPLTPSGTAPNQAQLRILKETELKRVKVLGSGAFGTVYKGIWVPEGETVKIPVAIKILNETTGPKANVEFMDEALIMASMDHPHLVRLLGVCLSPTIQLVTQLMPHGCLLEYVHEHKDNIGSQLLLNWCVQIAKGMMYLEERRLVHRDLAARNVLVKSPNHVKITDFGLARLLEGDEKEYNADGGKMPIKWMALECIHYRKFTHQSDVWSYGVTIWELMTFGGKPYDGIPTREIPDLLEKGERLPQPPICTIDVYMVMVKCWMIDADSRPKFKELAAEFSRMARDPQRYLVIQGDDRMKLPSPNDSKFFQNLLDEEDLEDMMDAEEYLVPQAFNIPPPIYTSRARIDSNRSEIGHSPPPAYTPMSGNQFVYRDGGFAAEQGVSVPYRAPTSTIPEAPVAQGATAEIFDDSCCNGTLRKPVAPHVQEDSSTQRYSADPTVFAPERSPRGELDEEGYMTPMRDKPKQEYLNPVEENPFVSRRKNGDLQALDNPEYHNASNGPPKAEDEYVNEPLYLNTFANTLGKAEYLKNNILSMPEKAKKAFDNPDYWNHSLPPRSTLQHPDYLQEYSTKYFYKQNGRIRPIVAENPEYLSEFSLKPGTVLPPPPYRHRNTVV
Description: CHO cells were transfected with vectors directing expression of the indicated ErbB proteins or their combinations. Two days later cell monolayers were incubated with either ^125I-NRG-1β or ^125I-NRG-4 (EGF-like domains, each at 100 ng/ml). Following 2 hours at 4° C., the covalent crosslinking reagent bis(sulfosuccinimdyl)-suberate (BS^3) was added (1 mM final concentration) and cell extracts prepared after an additional 45 minutes of incubation. The indicated ErbB proteins were then immunoprecipitated with mouse monoclonal antibodies, and the complexes resolved by gel electrophoresis and autoradiography. Arrows mark the locations of monomeric (M) and dimeric (D) receptor complexes.
Growth factors were labeled with Iodogen (Pierce) as described (Karunagaran et al., 1995). Chemical crosslinking to Chinese Hamster Ovary (CHO) cells engineered to express different ErbB combinations have been performed essentially as described (Tzahar et al., 1996). Briefly, radiolabeled ligands (at 100 ng/ml) were incubated for 2 hours with cell monolayers at 4 C. […] Non-specific binding was determined in the presence of a 100-fold molar excess of the unlabeled ligani. Cells were then washed, lysed in a solution containing 0.1 M NaOH and 0.1% SDS, and radioactivity determined by use of a gamma counter. […]

binding to IgB-1 (covalent crosslinking signal) [1]: low or no binding | binding to IgB-3 (covalent crosslinking signal) [2]: low or no binding | binding to IgB-4 (covalent crosslinking signal) ([3]; 125I-labeled ligand, BS3 crosslinking): only weakly | displacement of the radioactive ligand from IgB-4 by unlabeled NRG-4 ([3]; unlabeled NRG-4 at 100-fold molar excess): efficient displacement | binding to IgB-2 (covalent crosslinking signal) [4]: low or no binding | heterodimerization of ErbB-3 with ErbB-4 ([5]; following ligand binding): largely escaped heterodimerization
B1: NRG-4: synthetic refolded mouse EGF-like domain of NRG-4 (residues 4 to 50, SEQ ID NO:2) (peptide, listed as Mus musculus)
chain: MPTDHEQPCGPRHRSFCLNGGICYVIPTIPSPFCRCIENYTGARCEEVFLPSSSIPSESNLSAAFVVLAVLLTLTIAALCFLCRKGHLQRASSVQCEISLVETNNTRTRHSHREH
effect of ErbB-3 co-expression on the radioactive signal ([5]; CHO cells, ErbB-4 + ErbB-3): did not significantly affect the radioactive signals
